Test results as given in patent US20210188980A1.

B1: mAb742 (antibody, V domains shown)
VH: QGQLQQSGAELVRPGASVTLSCKASGYTFNDYEMHWVKQTPVHGLEWIGAIDPETGGTAYNQKFKGKAILTADKSSSTAYMELRSLTSEDSAVYYCIRWGSTVFPYWGQGTLVTVS
VL: DGVLTQTPLSLPVNIGDQASISCKSTKSLLNSDGFTYLDWYLQKPGQSPQLLIYLVSNRFSGVPDRFSGSGSGTDFTLKISRVEAEDLGVYYCFQSNYLPWTFGGGTKLEIK
B2: mAb744 (antibody, V domains shown)
VH: QVQLQQSGAELVRPGTSVTLSCKASGYTFTDYEMHWMKQTPVHGLEWIGAIDPATGGTAYNQKFKGKAILTADKSSSTAYMDFRSLTSEDSAVYYCIRWGTTVFPYWGQGTLVTVS
VL: DVVLTQTPLSLPVNIGDQASISCKSTKSLLNSDGFTYLDWYLQKPGQSPQLLIYLVSNRFSGVPDRFSGSGSGTDFTLKISRVEAEDLGVYYCFQSNYLPWTFGGGTKLEIK
B3: mAb746 (antibody, V domains shown)
VH: EVQLQQSGAELVRPGASVKLSCTASDFNIKDDYMHWVKQRPEQGLDWIGWIVPENGNTEYASKFQGKATITADTSSNTAYLQLSSLTSEDTAVYYCTVYGDYWGQGTTLTVSS
VL: DIQMTQSPSSLSASLGERVSLNCRASQEISGYLSWLQQKSDGTIKRLIYAASTLDSGVPKRFSGSRSGSDYSLTISSLESEDFADYYCLQYASYPLTFGAGTKLELK
B4: mAb747 (antibody, V domains shown)
VH: EVQLQQSGAELVRPGASVKLSCTASDFNIKDDYMHWVKQRPEQGLDWIGWIVPENGNTEYASKFQGKATITADTSSNTAYLQLSSLTSEDTAVYYCTVYGDYWGQGTTLTVSS
VL: DIQMTQSPSSLSASLGERVSLNCRASQEISGYLSWLQQKPDGTIKRLIYAASTLDSGVPKRFSGSRSGSDYSLTISSLESEDFAAYYCLQYASYPLTFGAGTKLELK
B5: mAb748 (antibody, V domains shown)
VH: EVQMQQSGAELVRPGASVKLSCTVSGFNIKDDYMHWVKQRPEQGLEWIGWIDPENGDTEYASKFQGKATITADTSSNTAYLQLNSLTSEDTAVYYCTYFDYWGQGTTLTVSS
VL: not shown
B6: mAb749 (antibody, V domains shown)
VH: EVQLQQSGAELVRPGASVKVSCTASDFNIKDDYVHWVKQRPEQGLEWIGWIDPENGDTEYASKFQGKATITADTSSNTAYLQLSSLTSEDTAVYFCSTWDAEENYWGQGTTLSVSS
VL: DIVLTQAAPSVPVTPGESVSISCRSSKSLLHSNGNTYLYWFLQRPGQSPQVLIYRMSNLASGVPVRFSGSGSGTAFTLRISRVEAEDVGVYYCMQHLEYPFTFGSGTKLEIK
B7: mAb750 (antibody, V domains shown)
VH: EVQLQQSGAELVRPGASVKLSCTPSGLNIKDDYIHWVKQRPEQGLEWIGWIDPENGDTEYASKFQGKATITADTSSNTAYLQLSSLTSEDSAVYYCCTADYRNWYWGQGTTLTVSS
VL: not shown

These binders were tested against cynomolgus LAG-3 ECD/Fc fusion protein (cynomolgus monkey) (assay: ELISA, coated cynoLAG-3 ECD/Fc).
Chain of cynomolgus LAG-3 ECD/Fc fusion protein (cynomolgus monkey) (chain, as listed by the source limits assumed, form in doubt): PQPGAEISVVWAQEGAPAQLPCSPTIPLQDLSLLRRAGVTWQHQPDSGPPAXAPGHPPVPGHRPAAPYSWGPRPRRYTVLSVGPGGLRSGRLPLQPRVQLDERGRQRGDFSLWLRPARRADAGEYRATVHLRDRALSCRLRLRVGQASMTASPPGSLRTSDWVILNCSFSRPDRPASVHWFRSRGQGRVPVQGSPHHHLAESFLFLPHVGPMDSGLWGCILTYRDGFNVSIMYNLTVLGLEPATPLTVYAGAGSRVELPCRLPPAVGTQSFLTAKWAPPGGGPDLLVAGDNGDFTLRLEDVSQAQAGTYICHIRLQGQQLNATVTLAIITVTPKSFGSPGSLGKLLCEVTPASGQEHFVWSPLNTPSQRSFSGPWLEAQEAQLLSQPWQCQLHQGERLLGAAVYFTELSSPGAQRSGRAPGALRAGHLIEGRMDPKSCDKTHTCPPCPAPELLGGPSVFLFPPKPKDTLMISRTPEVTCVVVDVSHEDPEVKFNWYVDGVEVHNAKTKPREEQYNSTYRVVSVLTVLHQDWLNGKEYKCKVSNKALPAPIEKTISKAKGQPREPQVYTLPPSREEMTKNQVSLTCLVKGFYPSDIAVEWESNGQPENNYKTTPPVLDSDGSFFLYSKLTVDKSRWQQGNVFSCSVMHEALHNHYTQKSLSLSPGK

Compared with B1, B2 is 1.5-fold lower in EC50: 0.32 nM for the first, 0.21 nM for the second. The second is the more potent here.

Compared with B3, B4 is 1.6-fold higher in EC50: 0.21 nM for the first, 0.34 nM for the second.

B5 and B6 are within 1.5-fold of each other in EC50: 0.25 nM for the first, 0.33 nM for the second.

Binder B7 has an EC50 of 0.32 nM.
